# Results from patent US20260015399A1 (Boehringer Ingelheim, published 2026).
# *1 amine or outer side, *2 acyl side, *3 side chain or, on linkers, in order; H or OH if unused. Side-chain parts run from the residue outwards. The star is where a group is joined. C18 diacid = O=C(O)CCCCCCCCCCCCCCCCC(=O)*; γGlu = O=C(O)[C@H](CCC(=O)[*:2])N[*:1]; Isovaleryl = CC(C)CC(=O)*; Ahx = NCCCCCC(=O)O
# T1: human NPY2 receptor (human, UniProt P49146 1-381)
# T1 construct: whole, on cells; also called hNPY2-R; hNPY2R
# T1 sequence (looked up): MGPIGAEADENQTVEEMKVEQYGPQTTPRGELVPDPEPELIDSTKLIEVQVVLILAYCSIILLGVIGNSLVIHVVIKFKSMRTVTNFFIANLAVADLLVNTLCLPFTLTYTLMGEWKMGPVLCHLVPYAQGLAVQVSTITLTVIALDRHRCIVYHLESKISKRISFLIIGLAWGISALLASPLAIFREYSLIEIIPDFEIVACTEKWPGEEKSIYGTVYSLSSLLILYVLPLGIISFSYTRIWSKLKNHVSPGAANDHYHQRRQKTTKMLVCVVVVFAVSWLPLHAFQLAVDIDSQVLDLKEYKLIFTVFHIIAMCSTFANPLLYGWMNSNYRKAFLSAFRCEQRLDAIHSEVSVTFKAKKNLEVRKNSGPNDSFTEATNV
# T2: human NPY5 receptor (human, UniProt Q15761 1-445)
# T2 sequence (looked up): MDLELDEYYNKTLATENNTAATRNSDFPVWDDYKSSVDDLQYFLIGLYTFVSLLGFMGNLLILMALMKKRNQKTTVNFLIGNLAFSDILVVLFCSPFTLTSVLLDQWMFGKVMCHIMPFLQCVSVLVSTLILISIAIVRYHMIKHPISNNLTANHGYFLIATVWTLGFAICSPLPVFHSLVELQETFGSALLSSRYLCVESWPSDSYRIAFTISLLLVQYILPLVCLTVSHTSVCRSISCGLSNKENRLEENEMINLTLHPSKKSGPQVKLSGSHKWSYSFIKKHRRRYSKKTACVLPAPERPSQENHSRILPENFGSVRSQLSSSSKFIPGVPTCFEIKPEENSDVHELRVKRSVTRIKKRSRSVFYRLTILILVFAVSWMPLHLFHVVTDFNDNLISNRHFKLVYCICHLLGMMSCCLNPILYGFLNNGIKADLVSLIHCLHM
# B1: Compound 174 (peptide)
# peptide: Isovaleryl-APEK([Ahx-γGlu-C18 diacid])PGADASPEKLQRYYVSLRHYYHKLTRQRY-NH2
# SMILES: CC(C)CC(=O)N[C@@H](C)C(=O)N1CCC[C@H]1C(=O)N[C@@H](CCC(=O)O)C(=O)N[C@@H](CCCCNC(=O)CCCCCNC(=O)CC[C@H](NC(=O)CCCCCCCCCCCCCCCCC(=O)O)C(=O)O)C(=O)N1CCC[C@H]1C(=O)NCC(=O)N[C@@H](C)C(=O)N[C@@H](CC(=O)O)C(=O)N[C@@H](C)C(=O)N[C@@H](CO)C(=O)N1CCC[C@H]1C(=O)N[C@@H](CCC(=O)O)C(=O)N[C@@H](CCCCN)C(=O)N[C@@H](CC(C)C)C(=O)N[C@@H](CCC(N)=O)C(=O)N[C@@H](CCCNC(=N)N)C(=O)N[C@@H](Cc1ccc(O)cc1)C(=O)N[C@@H](Cc1ccc(O)cc1)C(=O)N[C@H](C(=O)N[C@@H](CO)C(=O)N[C@@H](CC(C)C)C(=O)N[C@@H](CCCNC(=N)N)C(=O)N[C@@H](Cc1c[nH]cn1)C(=O)N[C@@H](Cc1ccc(O)cc1)C(=O)N[C@@H](Cc1ccc(O)cc1)C(=O)N[C@@H](Cc1c[nH]cn1)C(=O)N[C@@H](CCCCN)C(=O)N[C@@H](CC(C)C)C(=O)N[C@H](C(=O)N[C@@H](CCCNC(=N)N)C(=O)N[C@@H](CCC(N)=O)C(=O)N[C@@H](CCCNC(=N)N)C(=O)N[C@@H](Cc1ccc(O)cc1)C(N)=O)[C@@H](C)O)C(C)C
# B2: Compound 12 (peptide)
# peptide: Isovaleryl-APEK([Ahx-γGlu-C18 diacid])PEEDASPEELQQYYVSLRHYYHWLTRQRY-NH2
# SMILES: CC(C)CC(=O)N[C@@H](C)C(=O)N1CCC[C@H]1C(=O)N[C@@H](CCC(=O)O)C(=O)N[C@@H](CCCCNC(=O)CCCCCNC(=O)CC[C@H](NC(=O)CCCCCCCCCCCCCCCCC(=O)O)C(=O)O)C(=O)N1CCC[C@H]1C(=O)N[C@@H](CCC(=O)O)C(=O)N[C@@H](CCC(=O)O)C(=O)N[C@@H](CC(=O)O)C(=O)N[C@@H](C)C(=O)N[C@@H](CO)C(=O)N1CCC[C@H]1C(=O)N[C@@H](CCC(=O)O)C(=O)N[C@@H](CCC(=O)O)C(=O)N[C@@H](CC(C)C)C(=O)N[C@@H](CCC(N)=O)C(=O)N[C@@H](CCC(N)=O)C(=O)N[C@@H](Cc1ccc(O)cc1)C(=O)N[C@@H](Cc1ccc(O)cc1)C(=O)N[C@H](C(=O)N[C@@H](CO)C(=O)N[C@@H](CC(C)C)C(=O)N[C@@H](CCCNC(=N)N)C(=O)N[C@@H](Cc1c[nH]cn1)C(=O)N[C@@H](Cc1ccc(O)cc1)C(=O)N[C@@H](Cc1ccc(O)cc1)C(=O)N[C@@H](Cc1c[nH]cn1)C(=O)N[C@@H](Cc1c[nH]c2ccccc12)C(=O)N[C@@H](CC(C)C)C(=O)N[C@H](C(=O)N[C@@H](CCCNC(=N)N)C(=O)N[C@@H](CCC(N)=O)C(=O)N[C@@H](CCCNC(=N)N)C(=O)N[C@@H](Cc1ccc(O)cc1)C(N)=O)[C@@H](C)O)C(C)C
# B3: Compound 15 (peptide)
# peptide: Isovaleryl-APEK([Ahx-γGlu-C18 diacid])PEEDASPEEIQQYYVSLRHYYNWLTRQRY-NH2
# SMILES: CC[C@H](C)[C@H](NC(=O)[C@H](CCC(=O)O)NC(=O)[C@H](CCC(=O)O)NC(=O)[C@@H]1CCCN1C(=O)[C@H](CO)NC(=O)[C@H](C)NC(=O)[C@H](CC(=O)O)NC(=O)[C@H](CCC(=O)O)NC(=O)[C@H](CCC(=O)O)NC(=O)[C@@H]1CCCN1C(=O)[C@H](CCCCNC(=O)CCCCCNC(=O)CC[C@H](NC(=O)CCCCCCCCCCCCCCCCC(=O)O)C(=O)O)NC(=O)[C@H](CCC(=O)O)NC(=O)[C@@H]1CCCN1C(=O)[C@H](C)NC(=O)CC(C)C)C(=O)N[C@@H](CCC(N)=O)C(=O)N[C@@H](CCC(N)=O)C(=O)N[C@@H](Cc1ccc(O)cc1)C(=O)N[C@@H](Cc1ccc(O)cc1)C(=O)N[C@H](C(=O)N[C@@H](CO)C(=O)N[C@@H](CC(C)C)C(=O)N[C@@H](CCCNC(=N)N)C(=O)N[C@@H](Cc1c[nH]cn1)C(=O)N[C@@H](Cc1ccc(O)cc1)C(=O)N[C@@H](Cc1ccc(O)cc1)C(=O)N[C@@H](CC(N)=O)C(=O)N[C@@H](Cc1c[nH]c2ccccc12)C(=O)N[C@@H](CC(C)C)C(=O)N[C@H](C(=O)N[C@@H](CCCNC(=N)N)C(=O)N[C@@H](CCC(N)=O)C(=O)N[C@@H](CCCNC(=N)N)C(=O)N[C@@H](Cc1ccc(O)cc1)C(N)=O)[C@@H](C)O)C(C)C
# B4: Compound 14 (peptide)
# peptide: Isovaleryl-APEK([Ahx-γGlu-C18 diacid])PPEDASPEELQRYYVSLRHYYNWLTRQRY-NH2
# SMILES: CC(C)CC(=O)N[C@@H](C)C(=O)N1CCC[C@H]1C(=O)N[C@@H](CCC(=O)O)C(=O)N[C@@H](CCCCNC(=O)CCCCCNC(=O)CC[C@H](NC(=O)CCCCCCCCCCCCCCCCC(=O)O)C(=O)O)C(=O)N1CCC[C@H]1C(=O)N1CCC[C@H]1C(=O)N[C@@H](CCC(=O)O)C(=O)N[C@@H](CC(=O)O)C(=O)N[C@@H](C)C(=O)N[C@@H](CO)C(=O)N1CCC[C@H]1C(=O)N[C@@H](CCC(=O)O)C(=O)N[C@@H](CCC(=O)O)C(=O)N[C@@H](CC(C)C)C(=O)N[C@@H](CCC(N)=O)C(=O)N[C@@H](CCCNC(=N)N)C(=O)N[C@@H](Cc1ccc(O)cc1)C(=O)N[C@@H](Cc1ccc(O)cc1)C(=O)N[C@H](C(=O)N[C@@H](CO)C(=O)N[C@@H](CC(C)C)C(=O)N[C@@H](CCCNC(=N)N)C(=O)N[C@@H](Cc1c[nH]cn1)C(=O)N[C@@H](Cc1ccc(O)cc1)C(=O)N[C@@H](Cc1ccc(O)cc1)C(=O)N[C@@H](CC(N)=O)C(=O)N[C@@H](Cc1c[nH]c2ccccc12)C(=O)N[C@@H](CC(C)C)C(=O)N[C@H](C(=O)N[C@@H](CCCNC(=N)N)C(=O)N[C@@H](CCC(N)=O)C(=O)N[C@@H](CCCNC(=N)N)C(=O)N[C@@H](Cc1ccc(O)cc1)C(N)=O)[C@@H](C)O)C(C)C
# Assays:
# [1] = target: T1, human NPY2 receptor; experiment: RLB: displacement of 125I-PYY(1-36) from hNPY2R membranes
# [2] = target: T1, human NPY2 receptor; experiment: cell-based or functional assay
# [3] = target: T2, human NPY5 receptor; experiment: cell-based or functional assay
Binder,Ki [1] [nM],"EC50, HTRF cAMP Gi assay [2] [nM]","EC50, HTRF cAMP Gi assay [3] [nM]"
B1,0.21,–,–
B2,4.16,0.25,> 5000
B3,3.98,0.14,> 5000
Isovaleryl-APEK([Ahx-γGlu-C18 diacid])PEADASPEEIQRYYVSLRHYYNWLTRQRY-NH2 [Compound 140],1.41,–,> 5000
B4,1.28,0.086,> 5000
